Columns and labels:
[1] = target: Recombinant mouse nidogen-2 protein (mouse) (UniProt O88322); assay: ELISA
[2] = target: Recombinant mouse nidogen-2 protein (mouse) (UniProt O88322)

Chain of UniProt O88322 (O88322 31-1403): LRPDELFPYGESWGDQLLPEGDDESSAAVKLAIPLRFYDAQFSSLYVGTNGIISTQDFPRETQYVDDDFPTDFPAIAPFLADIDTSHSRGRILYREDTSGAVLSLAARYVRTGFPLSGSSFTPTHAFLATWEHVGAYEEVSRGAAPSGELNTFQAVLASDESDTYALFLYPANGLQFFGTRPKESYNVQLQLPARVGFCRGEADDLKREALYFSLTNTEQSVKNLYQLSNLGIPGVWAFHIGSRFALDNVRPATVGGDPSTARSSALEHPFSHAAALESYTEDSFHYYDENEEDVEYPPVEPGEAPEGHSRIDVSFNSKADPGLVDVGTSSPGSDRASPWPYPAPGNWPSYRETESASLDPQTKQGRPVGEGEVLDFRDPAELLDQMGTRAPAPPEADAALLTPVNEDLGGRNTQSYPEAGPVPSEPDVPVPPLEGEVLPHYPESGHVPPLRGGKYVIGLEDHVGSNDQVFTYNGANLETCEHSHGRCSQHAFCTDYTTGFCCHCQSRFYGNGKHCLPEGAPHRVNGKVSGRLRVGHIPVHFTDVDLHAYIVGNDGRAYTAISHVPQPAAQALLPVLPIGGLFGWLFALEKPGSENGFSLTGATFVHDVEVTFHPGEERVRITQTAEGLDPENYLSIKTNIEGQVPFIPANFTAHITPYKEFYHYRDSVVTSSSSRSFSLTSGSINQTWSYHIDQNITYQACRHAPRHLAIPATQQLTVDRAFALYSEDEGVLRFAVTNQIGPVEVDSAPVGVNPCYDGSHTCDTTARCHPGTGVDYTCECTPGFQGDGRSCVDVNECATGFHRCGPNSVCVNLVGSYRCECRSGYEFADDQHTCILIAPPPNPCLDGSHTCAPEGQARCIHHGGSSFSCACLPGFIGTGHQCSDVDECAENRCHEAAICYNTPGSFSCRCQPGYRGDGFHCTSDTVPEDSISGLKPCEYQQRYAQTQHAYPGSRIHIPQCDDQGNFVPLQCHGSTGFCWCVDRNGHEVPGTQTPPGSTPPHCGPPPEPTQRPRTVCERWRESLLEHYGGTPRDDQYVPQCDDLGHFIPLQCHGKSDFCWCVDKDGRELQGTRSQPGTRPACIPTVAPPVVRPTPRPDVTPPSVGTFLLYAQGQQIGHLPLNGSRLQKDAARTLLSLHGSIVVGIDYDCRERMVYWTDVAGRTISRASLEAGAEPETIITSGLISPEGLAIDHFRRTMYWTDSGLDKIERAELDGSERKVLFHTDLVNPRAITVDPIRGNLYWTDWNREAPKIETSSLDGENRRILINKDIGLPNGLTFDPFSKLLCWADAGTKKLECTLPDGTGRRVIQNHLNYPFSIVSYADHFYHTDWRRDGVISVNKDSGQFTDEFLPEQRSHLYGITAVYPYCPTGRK

| Substance | Kd [1] [nM] | uptake of HCT-555 in mouse motor neurons pre-incubated with 20 μM of the domain, against buffer; pair to be blocked: nidogen and endogenous LAR [2] [%] | uptake of nidogen-2 in axons of mouse motor neurons pre-incubated with 20 μM of the domain, against buffer; pair to be blocked: nidogen and endogenous LAR [2] [%] |
| --- | --- | --- | --- |
| LAR FNIII1-4-FLAG (domain or fragment) | 5600 |  |  |
| LAR FNIII2-FLAG (6×His-LAR FNIII2-FLAG) (domain or fragment) | 2000 | 30 | 25 |
| LAR FNIII4-FLAG (6×His-LAR FNIII4-FLAG) (domain or fragment) | 1900 | 30 | 25 |
| LAR FNIII5-7-FLAG (domain or fragment) | 6800 |  |  |
| LAR FNIII5-FLAG (6×His-LAR FNIII5-FLAG) (domain or fragment) | 1400 |  |  |
| LAR FNIII7-FLAG (6×His-LAR FNIII7-FLAG) (domain or fragment) | 2500 | 30 | 25 |
| PTPRδ FNIII5-7-FLAG (domain or fragment) | 10000 |  |  |
| PTPRδ Ig1-3-His (domain or fragment) | 2000 |  |  |

From article PMC11329502
